Measured values taken from patent US20200216495A1 (ADRX, published 2020).
Where “and” joins values, the source holds several entries; their conditions need not be identical. Equal values may be shown once. Square brackets hold non-standard residues; d marks the D form. Ends that are not written are not given here.

What follows are binders tested against Tau40 P301L protein (human) (assay: cell-based or functional assay).

Binder | IC50, Tau40 assay (ThT)
[dK][dL][dK][dL][dR][dW] [klklrw] | 5.92 µM and 5.99 µM
[dL][dE][dI][dK][dI][dR][dH][dW] [leikirhw] | 5.38 µM and 8.72 µM
[dR][dL][dK][dW][dR][dW] [rlkwrw] | 5.62 µM
[dW][dR][dH][dK][dV][dR][dW] [wrhkvrw] | 5.5 µM
[dF][dR][dV][dK][dI][dE][dH][dW] [frvkiehw] | 5.25 µM
[dL][dR][dI][dE][dI][dE][dW][dH] [lrieiewh] | 5.89 µM and 9.68 µM
[dR][dI][dH][dY][dH][dL][dK][dI] [rihyhlki] | 6.63 µM
[dW][dL][dK][dV][dR][dW] [wlkvrw] | 5.51 µM
[dW][dQ][dL][dQ][dV][dR][dW] [wqlqvrw] | 6.57 µM
[dL][dK][dI][dR][dI][dH][dA][dH] [lkirihah] | 6.41 µM
[dL][dK][dV][dR][dW][dW] [lkvrww] | 6.48 µM
[dF][dH][dI][dE][dI][dR][dH][dF] [fhieirhf] | 6.06 µM
[dF][dE][dL][dR][dI][dK][dH][dY] [felrikhy] | 6.57 µM and 12 µM
[dW][dH][dV][dR][dL][dN][dH][dL] [whvrlnhl] | 6.39 µM
[dE][dK][dI][dR][dI][dH][dY] [ekirihy] | 5.58 µM
[dW][dR][dF][dH][dI][dH][dF][dY] [wrfhihfy] | 6.53 µM and 7 µM
[dV][dK][dV][dW]G[dR][dL][dW] (not fully specified (residue 5); printed as vkvwgrlw) [vkvwgrlw] | 6.72 µM

Further lines, results first:

IC50, Tau40 assay (ThT) | Binder
5.86 µM | [dW][dR][dL][dK][dH][dR][dW] [wrlkhrw]
5.99 µM and 7.56 µM | [dW][dR][dL][dW][dI][dH][dW][dW] [wrlwihww]
6.3 µM | [dY][dR][dI][dR][dL][dE][dH][dV] [yrirlehv]
6.46 µM | [dW][dR][dL][dL][dV][dR][dW][dW] [wrllvrww]
6.67 µM | [dW][dR][dL][dK][dV][dE][dW] [wrlkvew]
6.5 µM | [dY][dR][dI][dR][dI][dN][dH][dL] [yririnhl]
5.48 µM and 5.5 µM | [dW][dR][dL][dR][dV][dW] [wrlrvw]
